# Data reported in IntAct's records for PubMed 20534433.
# B1: Protein RED1 (Saccharomyces cerevisiae), P14291 (parent)
# chain: MEGLKKKIFGVCLKNDLAQTRNETKGIHYGLMTLETSKQLQEFLHLLVIKREVIQNFELLFHIINVAVKITDSNLPSDDIWHFILKLRFSSEINIDEDSKVLNYLLETGIAMENPVSWKCLAVISSILSSVPQSKKIITNLIETEHAKKIGQLFDNIQDLQQGNFLVEILSNCFKKSASNSKKVEKIPQLWQSRSKNKFFFENEFYPFSSKNGSLQTCQFLCNNFMSTLSFTGILRQVSYSGSETLKNLRIFKKKDDENSYFIQCIYNKIYLWLDEKAPLEFERKKIRITKNLKNKIQIKLRQPFHECVRTTADKTALLFNKTKGFQLEFEDEKLGETFFHNVNNIPKISEVQNFLVLDYIEEEPENEGEEEEQIGRADEQKEDEEEESLDELSTPMVYPIKSSIPHNHNEKVQLVTPDRSVSIRSDEWDLKSNTEDEEGNVLADLKISSTKETKRQTDYVHIDSEDQSPVVSAQMRKMRRESTKTLEILRQEFKDKDVQNKEDQSEQIQNPFVNTSSLVVGKSCLVNPKEKPNIDQTVVGITELKSNSSIKKRDINILDTIFGQPPSKKQKQFHKKEKKKQQKKLTNFKPIIDVPSQDKRNLRSNAPTKPKSIKVSKLRTDKKVTGEKSSPETAAEKVDDQTVRSNDEQAMSRATKEKCFPDVNEGKEITKDDAKVSLESKKNNETFVDSSVVEKHTPPDKDCNNCNITDILESTTVIDLQSPHGLSAPGQNTFTNKLQEQIYSSINHFSNELVRKISIINQELNKKILKELSEKYQKLFSELQDNFQNDTNEMLKFMGEIKDMMNLPEDQLVHAIRTRKFDNNKR
# B2: Protein RED1 (Saccharomyces cerevisiae), P14291 (parent)
# chain: B1 chain
# partner: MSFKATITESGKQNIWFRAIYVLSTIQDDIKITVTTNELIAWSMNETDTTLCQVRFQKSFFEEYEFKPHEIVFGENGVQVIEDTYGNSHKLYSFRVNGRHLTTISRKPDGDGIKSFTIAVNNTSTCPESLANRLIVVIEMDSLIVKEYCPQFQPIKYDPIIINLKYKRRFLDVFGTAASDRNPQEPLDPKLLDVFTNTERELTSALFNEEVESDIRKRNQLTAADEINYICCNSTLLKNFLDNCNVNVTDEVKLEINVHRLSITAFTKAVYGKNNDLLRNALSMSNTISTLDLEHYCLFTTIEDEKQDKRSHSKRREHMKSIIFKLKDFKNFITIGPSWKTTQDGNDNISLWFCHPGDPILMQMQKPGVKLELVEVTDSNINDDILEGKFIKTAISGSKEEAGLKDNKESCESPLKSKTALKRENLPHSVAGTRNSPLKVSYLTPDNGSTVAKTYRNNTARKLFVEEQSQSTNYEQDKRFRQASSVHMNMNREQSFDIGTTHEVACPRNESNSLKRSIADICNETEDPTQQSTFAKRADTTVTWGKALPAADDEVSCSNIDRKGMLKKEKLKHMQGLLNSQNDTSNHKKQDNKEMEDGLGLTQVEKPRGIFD
# B3: Protein RED1 (Saccharomyces cerevisiae), P14291 (parent)
# chain: B1 chain
# partner: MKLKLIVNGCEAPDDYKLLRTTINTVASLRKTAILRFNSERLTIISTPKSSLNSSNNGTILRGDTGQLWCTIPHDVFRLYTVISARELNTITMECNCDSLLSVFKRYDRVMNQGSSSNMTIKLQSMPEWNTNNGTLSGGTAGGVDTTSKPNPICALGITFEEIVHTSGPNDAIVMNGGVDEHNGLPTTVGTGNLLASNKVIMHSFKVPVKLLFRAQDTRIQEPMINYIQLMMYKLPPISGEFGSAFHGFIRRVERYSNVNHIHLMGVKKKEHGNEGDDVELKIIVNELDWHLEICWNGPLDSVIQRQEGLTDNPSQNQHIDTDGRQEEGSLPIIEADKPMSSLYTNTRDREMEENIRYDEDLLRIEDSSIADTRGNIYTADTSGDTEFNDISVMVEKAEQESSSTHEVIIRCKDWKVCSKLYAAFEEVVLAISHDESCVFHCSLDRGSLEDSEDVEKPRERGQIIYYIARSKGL
# B4: Protein RED1 (Saccharomyces cerevisiae), P14291 (parent)
# chain: B1 chain
# partner: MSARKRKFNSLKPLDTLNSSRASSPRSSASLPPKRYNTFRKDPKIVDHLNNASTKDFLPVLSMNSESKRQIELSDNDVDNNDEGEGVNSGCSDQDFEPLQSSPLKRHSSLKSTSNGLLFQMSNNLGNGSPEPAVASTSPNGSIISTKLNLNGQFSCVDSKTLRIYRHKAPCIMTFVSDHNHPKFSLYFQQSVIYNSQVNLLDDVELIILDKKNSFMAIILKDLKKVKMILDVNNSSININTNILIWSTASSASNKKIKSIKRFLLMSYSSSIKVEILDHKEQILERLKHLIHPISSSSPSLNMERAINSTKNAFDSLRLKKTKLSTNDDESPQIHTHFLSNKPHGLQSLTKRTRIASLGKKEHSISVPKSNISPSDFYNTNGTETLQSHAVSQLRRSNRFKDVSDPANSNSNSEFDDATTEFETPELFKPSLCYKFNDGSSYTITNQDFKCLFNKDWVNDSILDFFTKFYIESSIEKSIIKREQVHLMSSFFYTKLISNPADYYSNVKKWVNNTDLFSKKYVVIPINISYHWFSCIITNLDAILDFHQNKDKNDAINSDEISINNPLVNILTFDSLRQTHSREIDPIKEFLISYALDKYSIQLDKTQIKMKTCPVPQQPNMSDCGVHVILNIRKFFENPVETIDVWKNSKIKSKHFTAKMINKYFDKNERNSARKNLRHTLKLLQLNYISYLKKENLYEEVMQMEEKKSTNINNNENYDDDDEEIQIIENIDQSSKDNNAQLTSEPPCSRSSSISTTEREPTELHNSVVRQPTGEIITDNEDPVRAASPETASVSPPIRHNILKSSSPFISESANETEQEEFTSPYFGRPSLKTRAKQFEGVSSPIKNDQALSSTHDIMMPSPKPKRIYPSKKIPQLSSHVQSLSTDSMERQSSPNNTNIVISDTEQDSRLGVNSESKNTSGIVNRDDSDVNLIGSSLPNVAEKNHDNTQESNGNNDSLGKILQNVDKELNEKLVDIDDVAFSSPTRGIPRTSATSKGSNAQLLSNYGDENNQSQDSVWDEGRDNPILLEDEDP
# B5: Protein RED1 (Saccharomyces cerevisiae), P14291 (parent)
# chain: B1 chain
# partner: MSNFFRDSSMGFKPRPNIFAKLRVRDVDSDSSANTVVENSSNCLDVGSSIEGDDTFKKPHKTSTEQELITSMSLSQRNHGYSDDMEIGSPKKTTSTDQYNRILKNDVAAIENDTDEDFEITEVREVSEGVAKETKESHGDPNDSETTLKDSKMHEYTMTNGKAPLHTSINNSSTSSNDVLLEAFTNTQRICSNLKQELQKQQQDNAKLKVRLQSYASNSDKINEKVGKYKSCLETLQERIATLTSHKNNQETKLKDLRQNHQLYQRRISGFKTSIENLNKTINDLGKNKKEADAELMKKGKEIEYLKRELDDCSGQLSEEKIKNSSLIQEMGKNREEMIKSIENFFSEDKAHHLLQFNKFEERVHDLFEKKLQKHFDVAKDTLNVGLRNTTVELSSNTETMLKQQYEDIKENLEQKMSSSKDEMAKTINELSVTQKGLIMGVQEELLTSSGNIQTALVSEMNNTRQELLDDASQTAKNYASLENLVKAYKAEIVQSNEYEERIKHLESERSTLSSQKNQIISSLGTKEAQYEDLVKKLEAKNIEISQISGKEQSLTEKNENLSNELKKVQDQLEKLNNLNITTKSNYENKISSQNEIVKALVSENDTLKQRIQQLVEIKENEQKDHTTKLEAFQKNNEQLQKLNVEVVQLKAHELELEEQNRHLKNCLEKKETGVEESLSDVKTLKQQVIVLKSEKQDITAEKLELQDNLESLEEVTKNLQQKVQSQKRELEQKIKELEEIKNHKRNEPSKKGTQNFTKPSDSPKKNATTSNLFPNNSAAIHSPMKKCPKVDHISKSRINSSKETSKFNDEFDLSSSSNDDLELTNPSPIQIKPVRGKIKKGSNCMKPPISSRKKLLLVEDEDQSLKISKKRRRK
# Variants of: B1
# Conditions: with smt3_yeast SMT3, Q12306
# Sequence of smt3_yeast SMT3, Q12306 (Q12306 whole entry): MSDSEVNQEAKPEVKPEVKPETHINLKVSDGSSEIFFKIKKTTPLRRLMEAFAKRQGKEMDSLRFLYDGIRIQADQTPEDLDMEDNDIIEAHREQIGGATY
row,effect of a mutation on the interaction,Variant
1,disrupting interaction strength,K569R;K570R;K572R;K576R;K577R;K579R;K580R;K581R;K584R;K585R;K590R
2,disrupting interaction strength,K569R;K570R;K572R;K576R;K577R

# Variants of: B2
# Conditions: with ddc1_yeast DDC1, Q08949
row,effect of a mutation on the interaction,Variant
1,disrupting interaction strength,I743A

# Variants of: B3
# Conditions: with mec3_yeast MEC3, Q02574
row,effect of a mutation on the interaction,Variant
1,disrupting interaction strength,Q537A;V540A

# Variants of: B4
# Conditions: with ulp2_yeast ULP2, P40537
row,effect of a mutation on the interaction,Variant
1,disrupting interaction strength,K569R;K570R;K572R;K576R;K577R;K579R;K580R;K581R;K584R;K585R;K590R

# Variants of: B5
# Conditions: with zip1_yeast ZIP1, P31111
row,effect of a mutation on the interaction,Variant
1,disrupting interaction strength,K569R;K570R;K572R;K576R;K577R;K579R;K580R;K581R;K584R;K585R;K590R
